Experimental data: patent publication US5661005, “β3 integrin subunit specific polypeptides, cDNAS which encode these polypeptides and methods of producing these polypeptides” (Trustees of the University of Pennsylvania, dated 1997)

B1: polypeptide encoded by clone 28 (SEQ ID NO: 2), β3 integrin subunit specific polypeptide (other)
chain: GHEGPKITRKKSVITYSPTTGTCQMSLFASPTSSEEQKHRNGLSNEKRKKLNHPSLTESKESTTKDNDEFMMLLSKVEKLSEEIMEIMQNLSSIQ
B2: β3 integrin subunit specific polypeptide comprising about 111 amino acids (SEQ ID NO: 4) (other)
chain: MPVKRSLKLDGLLEENSFDPSKITRKKSVITYSPTTGTCQMSLFASPTSSEEQKHRNGLSNEKRKKLNHPSLTESKESTTKDNDEFMMLLSKVEKLSEEIMEIMQNLSSIQ

Tests used:
[1] = target: T1, integrin β1 cytoplasmic domain (Homo sapiens (Human), UniProt P05556); assay: yeast two-hybrid, quantitative β-galactosidase assay
T1 chain: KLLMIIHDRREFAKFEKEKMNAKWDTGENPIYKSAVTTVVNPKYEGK

[2] = target: T2, integrin β2 cytoplasmic domain (Homo sapiens (Human), UniProt P05107); assay: as above
T2 chain: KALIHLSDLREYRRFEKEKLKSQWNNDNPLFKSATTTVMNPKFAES

[3] = target: β3 cytoplasmic tail with mutation of a serine to a proline at amino acid residue 752 (Saccharomyces cerevisiae (strain ATCC 204508 / S288c) (Baker's yeast); Homo sapiens (Human)) (UniProt P04386); assay: yeast two-hybrid, quantitative β-galactosidase assay of yeast lysates

Row | Binder | binding result [1] | binding result [2] | reduction in the interaction (against the unmutated β3 cytoplasmic tail) [3]
1 | B1 | no binding | no binding | 70%
2 | B2 | no binding | no binding | 
